Tests used:
[1] = biological target: HEV ORF3 protein fused to the GAL4 binding domain; assay: yeast two-hybrid quantitative α-galactosidase assay; settings: triplicate samples, parent: est. 11, read off a plot
[2] = biological target: HEV methyltransferase fused to the GAL4 binding domain (UniProt P33424); assay: as above; settings: triplicate samples, parent: est. 8.7, read off a plot
[3] = biological target: GST fused X-domain (Hepatitis E virus) (UniProt P33424); assay: pull-down; ~500 fmol ORF3-His or ~500 fmol Met-His alone with 500 fmol GST-X; bound fraction against input by band intensity
[4] = biological target: GST fused X-domain (Hepatitis E virus) (UniProt P33424); assay: pull-down; competition: ORF3-His and Met-His together with 500 fmol GST-X, equimolar (~500 fmol) or with 1 and 2 pmol of one of them

HEV X-domain (macro domain) fused to the GAL4 activation domain (from UniProt P33424) R93E
response (normalized α-gal units) ([1]; P=0.077 vs wild type X): 13 | response (normalized α-gal units) ([2]; P=0.51 vs wild type X): 7.6

HEV X-domain (macro domain) fused to the GAL4 activation domain (from UniProt P33424) L101E; L102E
response (normalized α-gal units) [1]: 3.2 | response (normalized α-gal units) [2]: 1.9

HEV X-domain (macro domain) fused to the GAL4 activation domain (from UniProt P33424) I66E; I67E
response (normalized α-gal units) ([1]; P=0.002 vs wild type X): 6.2

HEV X-domain (macro domain) fused to the GAL4 activation domain (from UniProt P33424) L94R
response (normalized α-gal units) ([1]; P=0.056 vs wild type X): 13 | response (normalized α-gal units) ([2]; P=0.82 vs wild type X): 8.3

HEV X-domain (macro domain) fused to the GAL4 activation domain (from UniProt P33424) R93E; L101E; L102E
response (normalized α-gal units) [1]: 2.9 | response (normalized α-gal units) [2]: 1.6

His-tagged ORF3 (pRSET ORF3) (from UniProt O90299 1-114) (natural protein)
percent of input pulled down [3]: 25% | percent of input in the bound fraction with equimolar Met-His present [4]: 10%
